T1: soluble CD22-Fc (R&D Systems) (UniProt P20273 20-687)
T1 construct: Bought reagent used to stain CD22 CARs; not shown: Fc part; detected with anti-human IgG Fc-gamma secondary
T1 sequence (looked up): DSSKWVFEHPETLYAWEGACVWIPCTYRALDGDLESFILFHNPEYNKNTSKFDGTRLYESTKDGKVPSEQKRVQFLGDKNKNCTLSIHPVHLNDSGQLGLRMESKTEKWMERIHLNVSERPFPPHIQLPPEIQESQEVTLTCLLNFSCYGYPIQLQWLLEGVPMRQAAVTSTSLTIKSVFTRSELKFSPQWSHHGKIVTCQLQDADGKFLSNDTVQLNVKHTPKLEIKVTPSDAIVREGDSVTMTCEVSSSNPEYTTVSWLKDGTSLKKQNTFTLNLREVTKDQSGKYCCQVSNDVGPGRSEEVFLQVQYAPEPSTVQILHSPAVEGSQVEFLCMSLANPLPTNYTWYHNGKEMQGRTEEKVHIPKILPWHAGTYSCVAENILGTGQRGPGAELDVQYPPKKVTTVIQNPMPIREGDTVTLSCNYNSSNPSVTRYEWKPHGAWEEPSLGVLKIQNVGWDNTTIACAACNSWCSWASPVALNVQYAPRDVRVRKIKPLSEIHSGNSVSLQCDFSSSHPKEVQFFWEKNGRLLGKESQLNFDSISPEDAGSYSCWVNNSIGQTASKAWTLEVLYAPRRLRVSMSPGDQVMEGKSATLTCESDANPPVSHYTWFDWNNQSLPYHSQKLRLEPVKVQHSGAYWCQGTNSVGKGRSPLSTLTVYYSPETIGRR

B1: tandem CD22/CD19 CAR construct 187 (other)
chain: QSALTQPASASGSPGQSVTISCTGTSSDVGGYNYVSWYQQHPGKAPKLMIYDVSNRPSGVSNRFSGSKSGNTASLTISGLQAEDEADYYCSSYTSSSTLYVFGTGTQLTVLGGGGSEVQLQQSGPGLVKPSQTLSLTCAISGDSMLSNSDTWNWIRQSPSRGLEWLGRTYHRSTWYDDYASSVRGRVSINVDTSKNQYSLQLNAVTPEDTGVYYCARVRLQDGNSWSDAFDVWGQGTMVTVSSLAEAAAKEIVMTQSPATLSLSPGERATLSCRASQDISKYLNWYQQKPGQAPRLLIYHTSRLHSGIPARFSGSGSGTDYTLTISSLQPEDFAVYFCQQGNTLPYTFGQGTKLEIKGGGGSGGGGSGGGGSQVQLQESGPGLVKPSETLSLTCTVSGVSLPDYGVSWIRQPPGKGLEWIGVIWGSETTYYQSSLKSRVTISKDNSKNQVSLKLSSVTAADTAVYYCAKHYYYGGSYAMDYWGQGTLVTVSSTTTPAPRPPTPAPTIASQPLSLRPEACRPAAGGAVHTRGLDFACDIYIWAPLAGTCGVLLLSLVITLYCKRGRKKLLYIFKQPFMRPVQTTQEEDGCSCRFPEEEEGGCELRVKFSRSADAPAYQQGQNQLYNELNLGRREEYDVLDKRRGRDPEMGGKPRRKNPQEGLYNELQKDKMAEAYSEIGMKGERRRGKGHDGLYQGLSTATKDTYDALHMQALPPR
notes: Distal anti-CD22 scFv L/H short linker, LAEAAAK, proximal anti-CD19 scFv; leader 1-21 left out; also called CG#c187; c187
B2: tandem CD22/CD19 CAR construct 183 (other)
chain: EVQLQQSGPGLVKPSQTLSLTCAISGDSMLSNSDTWNWIRQSPSRGLEWLGRTYHRSTWYDDYASSVRGRVSINVDTSKNQYSLQLNAVTPEDTGVYYCARVRLQDGNSWSDAFDVWGQGTMVTVSSGGGGSQSALTQPASASGSPGQSVTISCTGTSSDVGGYNYVSWYQQHPGKAPKLMIYDVSNRPSGVSNRFSGSKSGNTASLTISGLQAEDEADYYCSSYTSSSTLYVFGTGTQLTVLLAEAAAKEIVMTQSPATLSLSPGERATLSCRASQDISKYLNWYQQKPGQAPRLLIYHTSRLHSGIPARFSGSGSGTDYTLTISSLQPEDFAVYFCQQGNTLPYTFGQGTKLEIKGGGGSGGGGSGGGGSQVQLQESGPGLVKPSETLSLTCTVSGVSLPDYGVSWIRQPPGKGLEWIGVIWGSETTYYQSSLKSRVTISKDNSKNQVSLKLSSVTAADTAVYYCAKHYYYGGSYAMDYWGQGTLVTVSSTTTPAPRPPTPAPTIASQPLSLRPEACRPAAGGAVHTRGLDFACDIYIWAPLAGTCGVLLLSLVITLYCKRGRKKLLYIFKQPFMRPVQTTQEEDGCSCRFPEEEEGGCELRVKFSRSADAPAYQQGQNQLYNELNLGRREEYDVLDKRRGRDPEMGGKPRRKNPQEGLYNELQKDKMAEAYSEIGMKGERRRGKGHDGLYQGLSTATKDTYDALHMQALPPR
notes: Distal anti-CD22 scFv H/L short linker, LAEAAAK, proximal anti-CD19 scFv; leader 1-21 left out; also called CG#c183; c183
B3: tandem CD22/CD19 CAR construct 186 (other)
chain: QSALTQPASASGSPGQSVTISCTGTSSDVGGYNYVSWYQQHPGKAPKLMIYDVSNRPSGVSNRFSGSKSGNTASLTISGLQAEDEADYYCSSYTSSSTLYVFGTGTQLTVLGGGGSGGGGSGGGGSEVQLQQSGPGLVKPSQTLSLTCAISGDSMLSNSDTWNWIRQSPSRGLEWLGRTYHRSTWYDDYASSVRGRVSINVDTSKNQYSLQLNAVTPEDTGVYYCARVRLQDGNSWSDAFDVWGQGTMVTVSSGGGGSEIVMTQSPATLSLSPGERATLSCRASQDISKYLNWYQQKPGQAPRLLIYHTSRLHSGIPARFSGSGSGTDYTLTISSLQPEDFAVYFCQQGNTLPYTFGQGTKLEIKGGGGSGGGGSGGGGSQVQLQESGPGLVKPSETLSLTCTVSGVSLPDYGVSWIRQPPGKGLEWIGVIWGSETTYYQSSLKSRVTISKDNSKNQVSLKLSSVTAADTAVYYCAKHYYYGGSYAMDYWGQGTLVTVSSTTTPAPRPPTPAPTIASQPLSLRPEACRPAAGGAVHTRGLDFACDIYIWAPLAGTCGVLLLSLVITLYCKRGRKKLLYIFKQPFMRPVQTTQEEDGCSCRFPEEEEGGCELRVKFSRSADAPAYQQGQNQLYNELNLGRREEYDVLDKRRGRDPEMGGKPRRKNPQEGLYNELQKDKMAEAYSEIGMKGERRRGKGHDGLYQGLSTATKDTYDALHMQALPPR
notes: Distal anti-CD22 scFv L/H, GGGGS, proximal anti-CD19 scFv; leader 1-21 left out; also called CG#c186; c186
B4: tandem CD22/CD19 CAR construct 182 (other)
chain: EVQLQQSGPGLVKPSQTLSLTCAISGDSMLSNSDTWNWIRQSPSRGLEWLGRTYHRSTWYDDYASSVRGRVSINVDTSKNQYSLQLNAVTPEDTGVYYCARVRLQDGNSWSDAFDVWGQGTMVTVSSGGGGSGGGGSGGGGSQSALTQPASASGSPGQSVTISCTGTSSDVGGYNYVSWYQQHPGKAPKLMIYDVSNRPSGVSNRFSGSKSGNTASLTISGLQAEDEADYYCSSYTSSSTLYVFGTGTQLTVLGGGGSEIVMTQSPATLSLSPGERATLSCRASQDISKYLNWYQQKPGQAPRLLIYHTSRLHSGIPARFSGSGSGTDYTLTISSLQPEDFAVYFCQQGNTLPYTFGQGTKLEIKGGGGSGGGGSGGGGSQVQLQESGPGLVKPSETLSLTCTVSGVSLPDYGVSWIRQPPGKGLEWIGVIWGSETTYYQSSLKSRVTISKDNSKNQVSLKLSSVTAADTAVYYCAKHYYYGGSYAMDYWGQGTLVTVSSTTTPAPRPPTPAPTIASQPLSLRPEACRPAAGGAVHTRGLDFACDIYIWAPLAGTCGVLLLSLVITLYCKRGRKKLLYIFKQPFMRPVQTTQEEDGCSCRFPEEEEGGCELRVKFSRSADAPAYQQGQNQLYNELNLGRREEYDVLDKRRGRDPEMGGKPRRKNPQEGLYNELQKDKMAEAYSEIGMKGERRRGKGHDGLYQGLSTATKDTYDALHMQALPPR
notes: Distal anti-CD22 scFv H/L, GGGGS, proximal anti-CD19 scFv; leader 1-21 left out; also called CG#c182; c182
B5: tandem CD22/CD19 CAR construct 184 (other)
chain: EVQLQQSGPGLVKPSQTLSLTCAISGDSMLSNSDTWNWIRQSPSRGLEWLGRTYHRSTWYDDYASSVRGRVSINVDTSKNQYSLQLNAVTPEDTGVYYCARVRLQDGNSWSDAFDVWGQGTMVTVSSGGGGSQSALTQPASASGSPGQSVTISCTGTSSDVGGYNYVSWYQQHPGKAPKLMIYDVSNRPSGVSNRFSGSKSGNTASLTISGLQAEDEADYYCSSYTSSSTLYVFGTGTQLTVLGGGGSEIVMTQSPATLSLSPGERATLSCRASQDISKYLNWYQQKPGQAPRLLIYHTSRLHSGIPARFSGSGSGTDYTLTISSLQPEDFAVYFCQQGNTLPYTFGQGTKLEIKGGGGSGGGGSGGGGSQVQLQESGPGLVKPSETLSLTCTVSGVSLPDYGVSWIRQPPGKGLEWIGVIWGSETTYYQSSLKSRVTISKDNSKNQVSLKLSSVTAADTAVYYCAKHYYYGGSYAMDYWGQGTLVTVSSTTTPAPRPPTPAPTIASQPLSLRPEACRPAAGGAVHTRGLDFACDIYIWAPLAGTCGVLLLSLVITLYCKRGRKKLLYIFKQPFMRPVQTTQEEDGCSCRFPEEEEGGCELRVKFSRSADAPAYQQGQNQLYNELNLGRREEYDVLDKRRGRDPEMGGKPRRKNPQEGLYNELQKDKMAEAYSEIGMKGERRRGKGHDGLYQGLSTATKDTYDALHMQALPPR
notes: Distal anti-CD22 scFv H/L short linker, GGGGS, proximal anti-CD19 scFv; leader 1-21 left out; also called CG#c184; c184
B6: tandem CD22/CD19 CAR construct 185 (other)
chain: QSALTQPASASGSPGQSVTISCTGTSSDVGGYNYVSWYQQHPGKAPKLMIYDVSNRPSGVSNRFSGSKSGNTASLTISGLQAEDEADYYCSSYTSSSTLYVFGTGTQLTVLGGGGSGGGGSGGGGSEVQLQQSGPGLVKPSQTLSLTCAISGDSMLSNSDTWNWIRQSPSRGLEWLGRTYHRSTWYDDYASSVRGRVSINVDTSKNQYSLQLNAVTPEDTGVYYCARVRLQDGNSWSDAFDVWGQGTMVTVSSLAEAAAKEIVMTQSPATLSLSPGERATLSCRASQDISKYLNWYQQKPGQAPRLLIYHTSRLHSGIPARFSGSGSGTDYTLTISSLQPEDFAVYFCQQGNTLPYTFGQGTKLEIKGGGGSGGGGSGGGGSQVQLQESGPGLVKPSETLSLTCTVSGVSLPDYGVSWIRQPPGKGLEWIGVIWGSETTYYQSSLKSRVTISKDNSKNQVSLKLSSVTAADTAVYYCAKHYYYGGSYAMDYWGQGTLVTVSSTTTPAPRPPTPAPTIASQPLSLRPEACRPAAGGAVHTRGLDFACDIYIWAPLAGTCGVLLLSLVITLYCKRGRKKLLYIFKQPFMRPVQTTQEEDGCSCRFPEEEEGGCELRVKFSRSADAPAYQQGQNQLYNELNLGRREEYDVLDKRRGRDPEMGGKPRRKNPQEGLYNELQKDKMAEAYSEIGMKGERRRGKGHDGLYQGLSTATKDTYDALHMQALPPR
notes: Distal anti-CD22 scFv L/H, LAEAAAK, proximal anti-CD19 scFv; leader 1-21 left out; also called CG#c185; c185

target: T1, soluble CD22-Fc (R&D Systems); experiment: FACS surface staining of transduced JNL cells with CD22-Fc

**Q.** Does B1 bind?
**A.** binds

**Q.** Does B2 bind?
**A.** binds

**Q.** Does B3 bind?
**A.** binds

**Q.** Does B4 bind?
**A.** binds

**Q.** Does B5 bind?
**A.** binds

**Q.** Does B6 bind?
**A.** binds

— USRE49847 (dated 2024)
